Experimental data as given in US20240109955A1.

B1: MX1028 (bispecific antibody)
chain 1: EIVMTQSPAILSVSPGERATLSCRASQSVAINLAWYQQKPGQAPRLLIYAASSRATGIPGRFSGSGSETNFTLTISSLQSGDFAVYYCQQYITWPPSYTFGQGTKLEIKGGSSGDTVMTQSPLSLPVTPGEPASISCRSSQSLLNSNGYNYLDWYVQKPGQSPQLLIYLGSNRASGVPDRFSGSGSGTDFTLKISRVEAEDVGVYYCMQPLQTPLFTFGPGTKVEIKGGGGSGGSGSGGGGSASGSGQVTLRESGPALVKPTQTLTLTCTFSGFSLSTRGVCVSWIRQPPGKALEWLAFIDWDDDKYYNTSLKTRLTISKDTSKNQVVLTMTNVHPVDTATYYCARISSHHGSSWCTTFDYWGQGALVTVSAGGSSGEVQLVESGGALIQPGGSLRLSCAASGIIVSANYMSWVRQAPGKGLEWVSVIYSGGSTFYADSVKGRFTISRDNSKNTLYLEMNSLRAEDTAVYYCARDAPILGVSDWGQGTLVTVSSASGGSGDKTHTCPPCPAPELLGGPSVFLFPPKPKDTLMISRTPEVTCVVVDVSHEDPEVKFNWYVDGVEVHNAKTKPREEQYNSYVVSVLTVLHQDWLNGKEYKCKVSNKALPAPIEKTISKAKGQPREPQVYTLPPCRDELTKNQVSLWCLVKGFYPSDIAVEWESNGQPENNYKTTPPVLDSDGSFFKKLTVDKSRWQQGNVFSCSVLHEALHSHYTQKSLSLSPG
chain 2: DTVMTQSPLSLPVTPGEPASISCRSSQSLLNSNGYNYLDWYVQKPGQSPQLLIYLGSNRASGVPDRFSGSGSGTDFTLKISRVEAEDVGVYYCMQPLQTPLFTFGPGTKVEIKGGSSGEIVMTQSPAILSVSPGERATLSCRASQSVAINLAWYQQKPGQAPRLLIYAASSRATGIPGRFSGSGSETNFTLTISSLQSGDFAVYYCQQYITWPPSYTFGQGTKLEIKGGGGSGGSGSGGGGSASGSGEVQLVESGGALIQPGGSLRLSCAASGIIVSANYMSWVRQAPGKGLEWVSVIYSGGSTFYADSVKGRFTISRDNSKNTLYLEMNSLRAEDTAVYYCARDAPILGVSDWGQGTLVTVSSGGSSGQVTLRESGPALVKPTQTLTLTCTFSGFSLSTRGVCVSWIRQPPGKALEWLAFIDWDDDKYYNTSLKTRLTISKDTSKNQVVLTMTNVHPVDTATYYCARISSHHGSSWCTTFDYWGQGALVTVSAASGGSGDKTHTCPPCPAPELLGGPSVFLFPPKPKDTLMISRTPEVTCVVVDVSHEDPEVKFNWYVDGVEVHNAKTKPREEQYNSYVVSVLTVLHQDWLNGKEYKCKVSNKALPAPIEKTISKAKGQPREPQVCTLPPSRDELTKNQVSLSCAVKGFYPSDIAVEWESNGQPENNYKTTPPVLDSDGSFFLVSKLTVDKSRWQQGNVFSCSVLHEALHSHYTQKSLSLSPG
B2: MX1041 (bispecific antibody)
chain: QTVVTQEPSFSVSPGGTVTLTCGLSSGSVSTAYFPSWYQQTPGQAPRTLIYGTNTRSSGVPDRFSGSILGNKAALTITGAQADDESDYYCVLYMGRGIVVFGGGTKLTVLGGSSGEIVLTQSPGTLSLSPGETATLSCRASQSFSSDLAWYQQKPGQAPRLLIYGASSRATGIPDRFSGSGSGTDFTLTISRLEPADFAVYYCQQYGSSPPVTFGGGTKVEIKGGGGSGGSGSGGGGSASGSGEVQLVESGGGLIQPGGSLRLSCAASGVIVSYNYMNWVRQAPGKGLEWVSVIYSGGSTFYADSVRGRFTISRDNSKNTLYLQMNSLRAEDTAVYYCARDLGPAGAFDIWGLGTMVTVSSGGSSGQVQLVESGGGVVQPGRSLRLSCAASGFTLSSYGMHWVRQAPGKGLEWVAVISYDGSNKYYVDSVKGRFTISRDNSKNTLYLQMNSLRAEDTAVYYCRWAYWELLPDYYYGMDVWGQGTTVTVSSASGGSGDKTHTCPPCPAPELLGGPSVFLFPPKPKDTLMISRTPEVTCVVVDVSHEDPEVKFNWYVDGVEVHNAKTKPREEQYNSYVVSVLTVLHQDWLNGKEYKCKVSNKALPAPIEKTISKAKGQPREPQVYTLPPSRDELTKNQVSLTCLVKGFYPSDIAVEWESNGQPENNYKTTPPVLDSDGSFFKKLTVDKSRWQQGNVFSCSVLHEALHSHYTQKSLSLSPG
B3: MX1027 (bispecific antibody)
chain 1: EIVMTQSPAILSVSPGERATLSCRASQSVAINLAWYQQKPGQAPRLLIYAASSRATGIPGRFSGSGSETNFTLTISSLQSGDFAVYYCQQYITWPPSYTFGQGTKLEIKGGSSGQTVVTQEPSFSVSPGGTVTLTCGLSSGSVSTAYFPSWYQQTPGQAPRTLIYGTNTRSSGVPDRFSGSILGNKAALTITGAQADDESDYYCVLYMGRGIVVFGGGTKLTVLGGGGSGGSGSGGGGSASGSGQVQLVESGGGVVQPGRSLRLSCAASGFTLSSYGMHWVRQAPGKGLEWVAVISYDGSNKYYVDSVKGRFTISRDNSKNTLYLQMNSLRAEDTAVYYCRWAYWELLPDYYYGMDVWGQGTTVTVSSGGSSGEVQLVESGGALIQPGGSLRLSCAASGIIVSANYMSWVRQAPGKGLEWVSVIYSGGSTFYADSVKGRFTISRDNSKNTLYLEMNSLRAEDTAVYYCARDAPILGVSDWGQGTLVTVSSASGGSGDKTHTCPPCPAPELLGGPSVFLFPPKPKDTLMISRTPEVTCVVVDVSHEDPEVKFNWYVDGVEVHNAKTKPREEQYNSYVVSVLTVLHQDWLNGKEYKCKVSNKALPAPIEKTISKAKGQPREPQVYTLPPCRDELTKNQVSLWCLVKGFYPSDIAVEWESNGQPENNYKTTPPVLDSDGSFFKKLTVDKSRWQQGNVFSCSVLHEALHSHYTQKSLSLSPG
chain 2: QTVVTQEPSFSVSPGGTVTLTCGLSSGSVSTAYFPSWYQQTPGQAPRTLIYGTNTRSSGVPDRFSGSILGNKAALTITGAQADDESDYYCVLYMGRGIVVFGGGTKLTVLGGSSGEIVMTQSPAILSVSPGERATLSCRASQSVAINLAWYQQKPGQAPRLLIYAASSRATGIPGRFSGSGSETNFTLTISSLQSGDFAVYYCQQYITWPPSYTFGQGTKLEIKGGGGSGGSGSGGGGSASGSGEVQLVESGGALIQPGGSLRLSCAASGIIVSANYMSWVRQAPGKGLEWVSVIYSGGSTFYADSVKGRFTISRDNSKNTLYLEMNSLRAEDTAVYYCARDAPILGVSDWGQGTLVTVSSGGSSGQVQLVESGGGVVQPGRSLRLSCAASGFTLSSYGMHWVRQAPGKGLEWVAVISYDGSNKYYVDSVKGRFTISRDNSKNTLYLQMNSLRAEDTAVYYCRWAYWELLPDYYYGMDVWGQGTTVTVSSASGGSGDKTHTCPPCPAPELLGGPSVFLFPPKPKDTLMISRTPEVTCVVVDVSHEDPEVKFNWYVDGVEVHNAKTKPREEQYNSYVVSVLTVLHQDWLNGKEYKCKVSNKALPAPIEKTISKAKGQPREPQVCTLPPSRDELTKNQVSLSCAVKGFYPSDIAVEWESNGQPENNYKTTPPVLDSDGSFFLVSKLTVDKSRWQQGNVFSCSVLHEALHSHYTQKSLSLSPG
B4: A46 + B8 (protein)
VH 1: QVQLVESGGGVVQPGRSLRLSCAASGFTLSSYGMHWVRQAPGKGLEWVAVISYDGSNKYYVDSVKGRFTISRDNSKNTLYLQMNSLRAEDTAVYYCRWAYWELLPDYYYGMDVWGQGTTVTVSS
VL 1: QTVVTQEPSFSVSPGGTVTLTCGLSSGSVSTAYFPSWYQQTPGQAPRTLIYGTNTRSSGVPDRFSGSILGNKAALTITGAQADDESDYYCVLYMGRGIVVFGGGTKLTVL
VH 2: EVQLVESGGALIQPGGSLRLSCAASGIIVSANYMSWVRQAPGKGLEWVSVIYSGGSTFYADSVKGRFTISRDNSKNTLYLEMNSLRAEDTAVYYCARDAPILGVSDWGQGTLVTVSS
VL 2: EIVMTQSPAILSVSPGERATLSCRASQSVAINLAWYQQKPGQAPRLLIYAASSRATGIPGRFSGSGSETNFTLTISSLQSGDFAVYYCQQYITWPPSYTFGQGTKLEIK
B5: E8 + B8 (protein)
VH 1: QVTLRESGPALVKPTQTLTLTCTFSGFSLSTRGVCVSWIRQPPGKALEWLAFIDWDDDKYYNTSLKTRLTISKDTSKNQVVLTMTNVHPVDTATYYCARISSHHGSSWCTTFDYWGQGALVTVSA
VL 1: DTVMTQSPLSLPVTPGEPASISCRSSQSLLNSNGYNYLDWYVQKPGQSPQLLIYLGSNRASGVPDRFSGSGSGTDFTLKISRVEAEDVGVYYCMQPLQTPLFTFGPGTKVEIK
VH 2: B4 VH 2
VL 2: B4 VL 2

What was measured:
Test in all cases: cell-based or functional assay
[1] = target: SARS-CoV-2 Omicron variant BQ.1 spike protein (SARS-CoV-2)
[2] = target: SARS-CoV-2 Omicron variant BQ.1.1 spike protein (SARS-CoV-2)
[3] = target: SARS-CoV-2 Omicron variant BA.2.75.2 spike protein (SARS-CoV-2)
[4] = target: SARS-CoV-2 Omicron variant XBB spike protein (SARS-CoV-2)
[5] = target: SARS-CoV-2 Omicron variant BA.4/5 spike protein (SARS-CoV-2)
[6] = target: SARS-CoV-2 Omicron variant B.1.1.529 spike protein (SARS-CoV-2)
[7] = target: SARS-CoV-2 Delta variant spike protein (SARS-CoV-2)

Binder | IC50, pseudovirus neutralization [1] [µg/mL] | IC80, pseudovirus neutralization [1] [µg/mL] | IC50, pseudovirus neutralization [2] [µg/mL] | IC80, pseudovirus neutralization [2] [µg/mL] | IC50, pseudovirus neutralization [3] [µg/mL] | IC80, pseudovirus neutralization [3] [µg/mL] | IC50, pseudovirus neutralization [4] [µg/mL] | IC80, pseudovirus neutralization [4] [µg/mL] | IC50, pseudovirus neutralization [5] [µg/mL] | IC80, pseudovirus neutralization [5] [µg/mL] | IC50, pseudovirus neutralization [6] [µg/mL] | IC80, pseudovirus neutralization [6] [µg/mL] | IC50, pseudovirus neutralization [7] [µg/mL] | IC80, pseudovirus neutralization [7] [µg/mL]
B1 | 0.0105 | 0.0255 | 0.0042 | 0.0144 | 0.00243 | 0.0074 | 0.00677 | 0.0161 | 0.00181 | 0.00373 | – | – | – | –
B2 | – | – | – | – | – | – | – | – | – | – | 0.00414 | 0.00881 | 0.0291 | 0.0485
B3 | 0.0216 | 0.0649 | 0.0135 | 0.0232 | – | – | 0.0129 | 0.0207 | – | – | – | – | – | –
B4 | 0.0186 | 0.0493 | 0.0145 | 0.0273 | – | – | 0.0186 | 0.0481 | – | – | – | – | – | –
B5 | 0.011 | 0.0305 | 0.00955 | 0.0132 | – | – | 0.00996 | 0.0181 | – | – | – | – | – | –
